Assay results reported in US20120114557A1.

How the values were obtained:
[1] = target: human collagen type I (human) (UniProt P02452); test: dried collagen assay, chelate conjugate
[2] = target: rat collagen type I (rat) (UniProt P02454); test: dried collagen assay, chelate conjugate
rat collagen type I (rat), sequence (P02454 152-1207, chain 1 of 2): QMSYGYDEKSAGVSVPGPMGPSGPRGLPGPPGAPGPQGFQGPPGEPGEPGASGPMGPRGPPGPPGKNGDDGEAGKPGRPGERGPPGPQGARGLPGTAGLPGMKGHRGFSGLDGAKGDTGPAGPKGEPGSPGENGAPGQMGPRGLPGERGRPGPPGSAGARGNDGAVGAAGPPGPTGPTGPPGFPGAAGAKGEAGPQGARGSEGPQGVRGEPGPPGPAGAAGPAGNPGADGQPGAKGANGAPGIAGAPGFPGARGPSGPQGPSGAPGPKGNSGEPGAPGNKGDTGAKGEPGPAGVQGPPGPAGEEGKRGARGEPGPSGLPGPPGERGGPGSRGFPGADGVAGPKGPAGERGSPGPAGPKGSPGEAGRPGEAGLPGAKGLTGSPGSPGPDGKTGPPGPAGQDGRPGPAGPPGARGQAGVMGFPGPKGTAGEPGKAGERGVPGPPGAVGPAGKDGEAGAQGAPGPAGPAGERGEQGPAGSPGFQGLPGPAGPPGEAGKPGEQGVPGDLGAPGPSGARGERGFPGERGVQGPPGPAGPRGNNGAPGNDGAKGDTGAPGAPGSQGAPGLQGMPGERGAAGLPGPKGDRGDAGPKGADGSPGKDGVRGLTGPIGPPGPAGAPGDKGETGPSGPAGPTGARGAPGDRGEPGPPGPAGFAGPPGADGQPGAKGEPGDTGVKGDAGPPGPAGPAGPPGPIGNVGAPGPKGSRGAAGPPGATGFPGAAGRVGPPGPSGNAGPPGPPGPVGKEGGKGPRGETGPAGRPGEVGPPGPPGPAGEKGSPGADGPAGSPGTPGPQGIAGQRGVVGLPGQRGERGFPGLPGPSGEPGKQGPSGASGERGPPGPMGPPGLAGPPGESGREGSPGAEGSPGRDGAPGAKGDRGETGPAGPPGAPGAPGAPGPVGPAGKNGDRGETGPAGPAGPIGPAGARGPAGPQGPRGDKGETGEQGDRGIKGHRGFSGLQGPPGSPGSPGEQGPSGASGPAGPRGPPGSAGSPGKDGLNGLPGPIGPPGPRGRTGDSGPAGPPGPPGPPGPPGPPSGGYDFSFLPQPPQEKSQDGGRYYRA
rat collagen type I (rat), sequence (P02466 86-1125, chain 2 of 2, further chain): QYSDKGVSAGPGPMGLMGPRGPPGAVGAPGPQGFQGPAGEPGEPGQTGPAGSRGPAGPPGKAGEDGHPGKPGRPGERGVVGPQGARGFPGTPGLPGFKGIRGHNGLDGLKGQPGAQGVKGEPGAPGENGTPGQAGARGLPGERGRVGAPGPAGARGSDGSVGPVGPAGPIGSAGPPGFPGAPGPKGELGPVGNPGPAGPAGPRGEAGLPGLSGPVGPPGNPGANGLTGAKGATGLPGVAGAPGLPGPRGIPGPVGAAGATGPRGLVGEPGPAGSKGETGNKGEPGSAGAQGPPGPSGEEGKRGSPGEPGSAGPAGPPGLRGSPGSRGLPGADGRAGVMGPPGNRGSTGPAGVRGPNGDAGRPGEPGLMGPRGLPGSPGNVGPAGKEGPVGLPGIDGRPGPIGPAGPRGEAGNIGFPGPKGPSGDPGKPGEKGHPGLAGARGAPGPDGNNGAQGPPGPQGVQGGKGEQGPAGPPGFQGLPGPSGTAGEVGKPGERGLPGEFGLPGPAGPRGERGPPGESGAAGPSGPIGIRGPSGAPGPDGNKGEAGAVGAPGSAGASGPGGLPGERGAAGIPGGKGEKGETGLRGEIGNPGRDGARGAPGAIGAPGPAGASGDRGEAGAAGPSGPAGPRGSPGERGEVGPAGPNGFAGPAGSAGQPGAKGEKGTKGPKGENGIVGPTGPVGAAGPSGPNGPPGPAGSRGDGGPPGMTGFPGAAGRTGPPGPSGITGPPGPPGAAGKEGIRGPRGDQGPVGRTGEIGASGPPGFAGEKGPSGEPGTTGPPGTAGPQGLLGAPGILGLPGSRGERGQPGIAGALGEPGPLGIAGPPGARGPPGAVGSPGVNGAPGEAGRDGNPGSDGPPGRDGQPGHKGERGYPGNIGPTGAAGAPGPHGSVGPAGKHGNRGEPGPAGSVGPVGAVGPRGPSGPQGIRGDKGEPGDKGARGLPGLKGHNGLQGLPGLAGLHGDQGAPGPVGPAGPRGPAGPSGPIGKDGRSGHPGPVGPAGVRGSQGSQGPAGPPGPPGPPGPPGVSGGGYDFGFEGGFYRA

human collagen type I (human), sequence (P02452 162-1218 limits assumed, chain 1 of 2): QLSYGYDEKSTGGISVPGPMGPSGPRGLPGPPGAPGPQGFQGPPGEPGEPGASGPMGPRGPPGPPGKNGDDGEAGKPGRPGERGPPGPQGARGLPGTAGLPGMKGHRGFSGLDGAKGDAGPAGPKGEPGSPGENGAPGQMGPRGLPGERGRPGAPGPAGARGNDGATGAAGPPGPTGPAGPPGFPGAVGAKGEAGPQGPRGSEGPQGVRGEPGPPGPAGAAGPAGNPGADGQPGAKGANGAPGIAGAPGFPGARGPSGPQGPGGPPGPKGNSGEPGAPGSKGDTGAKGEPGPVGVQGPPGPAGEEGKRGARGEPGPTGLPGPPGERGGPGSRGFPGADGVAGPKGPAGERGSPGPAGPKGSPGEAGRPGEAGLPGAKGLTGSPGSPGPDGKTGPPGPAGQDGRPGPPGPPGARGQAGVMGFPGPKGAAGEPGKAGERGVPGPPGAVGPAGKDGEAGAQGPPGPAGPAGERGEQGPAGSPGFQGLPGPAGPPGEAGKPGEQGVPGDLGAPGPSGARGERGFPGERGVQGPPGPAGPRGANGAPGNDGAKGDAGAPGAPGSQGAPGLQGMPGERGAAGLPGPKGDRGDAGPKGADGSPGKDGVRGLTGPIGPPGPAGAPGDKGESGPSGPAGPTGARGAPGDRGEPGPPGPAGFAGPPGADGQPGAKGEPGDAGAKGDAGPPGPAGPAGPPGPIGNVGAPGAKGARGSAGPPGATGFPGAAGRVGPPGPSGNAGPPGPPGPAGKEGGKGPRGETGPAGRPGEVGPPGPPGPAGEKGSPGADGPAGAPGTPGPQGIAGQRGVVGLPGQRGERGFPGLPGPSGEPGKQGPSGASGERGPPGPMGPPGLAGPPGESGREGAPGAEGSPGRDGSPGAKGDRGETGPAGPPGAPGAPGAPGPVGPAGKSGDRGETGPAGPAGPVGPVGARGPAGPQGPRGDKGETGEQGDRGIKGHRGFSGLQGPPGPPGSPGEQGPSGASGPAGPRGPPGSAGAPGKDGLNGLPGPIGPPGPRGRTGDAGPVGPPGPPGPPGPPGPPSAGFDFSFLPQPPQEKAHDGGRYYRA
human collagen type I (human), sequence (P08123 80-1119 limits assumed, chain 2 of 2, further chain): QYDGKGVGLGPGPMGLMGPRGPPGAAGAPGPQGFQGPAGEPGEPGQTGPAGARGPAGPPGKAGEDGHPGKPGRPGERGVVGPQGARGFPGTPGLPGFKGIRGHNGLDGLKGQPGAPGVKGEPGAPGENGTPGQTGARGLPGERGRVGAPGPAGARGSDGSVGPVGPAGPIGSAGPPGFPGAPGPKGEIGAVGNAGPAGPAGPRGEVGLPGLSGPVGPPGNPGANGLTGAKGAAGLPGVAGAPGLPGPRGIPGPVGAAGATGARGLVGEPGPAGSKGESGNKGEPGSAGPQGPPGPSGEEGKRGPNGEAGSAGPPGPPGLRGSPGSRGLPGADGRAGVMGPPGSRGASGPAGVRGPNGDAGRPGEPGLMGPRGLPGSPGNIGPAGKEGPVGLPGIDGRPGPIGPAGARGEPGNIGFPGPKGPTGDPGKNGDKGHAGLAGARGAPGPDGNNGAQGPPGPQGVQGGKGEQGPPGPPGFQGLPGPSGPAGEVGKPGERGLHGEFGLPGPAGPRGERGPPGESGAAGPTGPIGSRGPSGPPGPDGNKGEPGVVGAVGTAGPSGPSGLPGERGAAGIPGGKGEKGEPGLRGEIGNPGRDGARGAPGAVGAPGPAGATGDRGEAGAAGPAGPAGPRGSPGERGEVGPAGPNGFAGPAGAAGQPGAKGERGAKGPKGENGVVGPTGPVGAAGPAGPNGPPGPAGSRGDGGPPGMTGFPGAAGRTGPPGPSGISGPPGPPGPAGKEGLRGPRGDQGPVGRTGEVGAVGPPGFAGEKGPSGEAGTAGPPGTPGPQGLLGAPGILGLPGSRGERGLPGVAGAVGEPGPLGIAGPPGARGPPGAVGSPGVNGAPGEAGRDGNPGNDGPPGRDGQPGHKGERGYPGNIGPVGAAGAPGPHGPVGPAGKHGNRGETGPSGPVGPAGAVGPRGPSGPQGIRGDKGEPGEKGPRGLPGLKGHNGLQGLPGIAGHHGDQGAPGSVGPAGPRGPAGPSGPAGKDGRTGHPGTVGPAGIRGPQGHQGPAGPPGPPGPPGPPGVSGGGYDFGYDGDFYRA

% Binding Collagen I, Human [1]: 28%
% Binding Collagen I, Rat [2]: 5%
Substance: Glu-DTPA-Gd-PEG(20)-G-Q-W-T-C-S-G-D-E-Y-T-W-H-C-N-Y-e (peptide)
